Experimental data reported in article PMC5758891.

Target: T1, Lhr-(1-856) (UniProt A0QT91 1-856)
T1 sequence: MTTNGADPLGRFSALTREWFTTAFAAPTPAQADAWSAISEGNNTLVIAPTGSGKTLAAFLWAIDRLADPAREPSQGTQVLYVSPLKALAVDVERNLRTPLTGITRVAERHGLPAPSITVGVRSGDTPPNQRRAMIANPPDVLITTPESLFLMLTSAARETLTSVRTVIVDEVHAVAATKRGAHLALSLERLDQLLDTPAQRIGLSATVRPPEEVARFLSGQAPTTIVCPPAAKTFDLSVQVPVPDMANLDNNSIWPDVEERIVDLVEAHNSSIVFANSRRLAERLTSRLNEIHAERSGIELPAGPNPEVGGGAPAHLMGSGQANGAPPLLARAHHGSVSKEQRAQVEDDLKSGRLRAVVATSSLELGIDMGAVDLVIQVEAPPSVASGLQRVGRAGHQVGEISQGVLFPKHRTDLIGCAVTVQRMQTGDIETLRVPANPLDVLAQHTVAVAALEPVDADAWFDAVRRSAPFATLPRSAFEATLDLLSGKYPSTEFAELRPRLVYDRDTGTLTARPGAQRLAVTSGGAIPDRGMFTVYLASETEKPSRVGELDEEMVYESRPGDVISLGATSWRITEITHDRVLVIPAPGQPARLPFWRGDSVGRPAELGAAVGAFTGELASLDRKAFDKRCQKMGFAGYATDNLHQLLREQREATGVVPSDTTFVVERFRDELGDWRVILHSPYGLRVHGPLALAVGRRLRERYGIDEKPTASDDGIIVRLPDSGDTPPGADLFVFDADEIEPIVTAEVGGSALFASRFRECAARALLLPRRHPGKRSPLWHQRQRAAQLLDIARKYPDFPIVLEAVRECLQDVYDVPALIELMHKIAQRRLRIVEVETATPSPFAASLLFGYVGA
Assay: X-ray crystallography

GACCTGCTGCGGATTG (ssDNA) [16-mer ssDNA]: binds.
